Assay results from paper PMC13410764.

Target: Tr1 protein of Anaplasma phagocytophilum (recombinant, tagless) (Anaplasma phagocytophilum)
Assay: SEC; gel filtration on a HiPrep Sephadex 75 16/600 column with Buffer B; apparent molecular weights from a standard curve of elution volumes

Question: “Tr1 protein of Anaplasma phagocytophilum (recombinant, tagless) (natural protein)” was tested. Which stoichiometry N did it give?
Answer: 4
